US20240002531A1 (ONO PHARMACEUTICAL, published 2024)
Like-named read-outs stand apart in the source and are kept apart here.

Columns and labels:
Assay in all cases: peptide ELISA, OD 655 nm
[1] = target: T1, HER2 peptide p603-622 (amino acids 603 to 622 of human HER2) (human)
T1 construct: Synthetic peptide; also called wild-type HER2 peptide
T1 peptide: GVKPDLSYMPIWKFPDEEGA

[2] = target: T2, G603A peptide (HER2 603-622 with G603A) (human)
T2 peptide: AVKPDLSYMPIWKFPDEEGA

[3] = target: T3, V604A peptide (HER2 603-622 with V604A) (human)
T3 peptide: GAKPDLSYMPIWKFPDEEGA

[4] = target: T4, K605A peptide (HER2 603-622 with K605A) (human)
T4 peptide: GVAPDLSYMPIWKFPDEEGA

[5] = target: T5, P606A peptide (HER2 603-622 with P606A) (human)
T5 peptide: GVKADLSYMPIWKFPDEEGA

[6] = target: T6, D607A peptide (HER2 603-622 with D607A) (human)
T6 peptide: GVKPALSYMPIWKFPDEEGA

[7] = target: T7, L608A peptide (HER2 603-622 with L608A) (human)
T7 peptide: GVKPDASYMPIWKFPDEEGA

[8] = target: T8, S609A peptide (HER2 603-622 with S609A) (human)
T8 peptide: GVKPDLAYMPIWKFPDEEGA

[9] = target: T9, Y610A peptide (HER2 603-622 with Y610A) (human)
T9 peptide: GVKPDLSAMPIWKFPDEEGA

[10] = target: T10, M611A peptide (HER2 603-622 with M611A) (human)
T10 peptide: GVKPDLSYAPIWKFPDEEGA

[11] = target: T11, P612A peptide (HER2 603-622 with P612A) (human)
T11 peptide: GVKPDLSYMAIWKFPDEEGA

[12] = target: T12, I613A peptide (HER2 603-622 with I613A) (human)
T12 construct: also called 1613A
T12 peptide: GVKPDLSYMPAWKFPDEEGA

[13] = target: T13, W614A peptide (HER2 603-622 with W614A) (human)
T13 peptide: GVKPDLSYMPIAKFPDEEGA

[14] = target: T14, K615A peptide (HER2 603-622 with K615A) (human)
T14 peptide: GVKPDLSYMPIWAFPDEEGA

[15] = target: T15, F616A peptide (HER2 603-622 with F616A) (human)
T15 peptide: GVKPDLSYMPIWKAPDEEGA

[16] = target: T16, P617A peptide (HER2 603-622 with P617A) (human)
T16 peptide: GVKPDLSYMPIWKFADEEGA

[17] = target: T17, D618A peptide (HER2 603-622 with D618A) (human)
T17 peptide: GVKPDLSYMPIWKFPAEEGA

[18] = target: T18, E619A peptide (HER2 603-622 with E619A) (human)
T18 peptide: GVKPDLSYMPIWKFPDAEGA

[19] = target: T19, E620A peptide (HER2 603-622 with E620A) (human)
T19 peptide: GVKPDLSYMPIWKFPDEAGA

[20] = target: T20, G621A peptide (HER2 603-622 with G621A) (human)
T20 peptide: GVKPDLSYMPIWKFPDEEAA

[21] = target: T21, HER2_604-622C peptide (NH2-VKPDLSYMPIWKFPDEEGAC-COOH) (human)
T21 construct: KLH was added for immunisation, the peptide itself was coated in the screening ELISA
T21 peptide: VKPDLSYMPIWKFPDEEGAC

[22] = target: T1, HER2 peptide p603-622 (amino acids 603 …)
[23] = target: T2, G603A peptide (HER2 603-622 with G603A)
[24] = target: T3, V604A peptide (HER2 603-622 with V604A)
[25] = target: T4, K605A peptide (HER2 603-622 with K605A)
[26] = target: T5, P606A peptide (HER2 603-622 with P606A)
[27] = target: T6, D607A peptide (HER2 603-622 with D607A)
[28] = target: T7, L608A peptide (HER2 603-622 with L608A)
[29] = target: T8, S609A peptide (HER2 603-622 with S609A)
[30] = target: T9, Y610A peptide (HER2 603-622 with Y610A)
[31] = target: T10, M611A peptide (HER2 603-622 with M611A)
[32] = target: T11, P612A peptide (HER2 603-622 with P612A)
[33] = target: T12, I613A peptide (HER2 603-622 with I613A)
[34] = target: T13, W614A peptide (HER2 603-622 with W614A)
[35] = target: T14, K615A peptide (HER2 603-622 with K615A)
[36] = target: T15, F616A peptide (HER2 603-622 with F616A)
[37] = target: T16, P617A peptide (HER2 603-622 with P617A)
[38] = target: T17, D618A peptide (HER2 603-622 with D618A)
[39] = target: T18, E619A peptide (HER2 603-622 with E619A)
[40] = target: T19, E620A peptide (HER2 603-622 with E620A)
[41] = target: T20, G621A peptide (HER2 603-622 with G621A)
[42] = target: T21, HER2_604-622C peptide …

B1: H2Mab-291 antibody (antibody, mouse IgG3, V domains shown)
VH: EVQLQQSGPELVKPGASMKISCKASGYSFTGYTMNWVKQSHGKNLEWIGLINPYNGNTRYNQKFQDKATLTVDRSSSTAYMELLSLTSEDSAVYYCVKEPSDYWGQGTTLTVSS
VL: DVVMTQTPLSLPVSLGDQASISCRSSQSLVHINGNTYLHWYLQKPGQSPKLLIYKVSKRFSGVPDRFSGSGSGTDFTLKISRVEAADLGVYFCSQSTHVPPTFGGGTKLEIKR
B1: binds [1]; binds [2]; binds [3]. B1: binds [4]; binds [5]; binds [6]. B1: binds [7]; binds [8]; binds [9]. B1: binds [10]; binds [11]; binds [12]. B1: binds [13]; binds [14]; binds [15]. B1: binds [16]; binds [17]; binds [18]. B1: binds [19]; binds [20]; binds [21].

B2: H2Mab-292 antibody (antibody, mouse IgG3, V domains shown)
VH: EVQLQQSGPELVKPGASRKISCKASGYSFTGYTMNWVKKSHGKNLEWIGLINPSNGGTRYNQKFKDKATLTVDKSSSTAYMELLSLTSEDSAVYYCVKEPSDYWGQGTTLTVSS
VL: DVVMTQTPLSLPVSLGDQASISCRSSQSLVHSNGNTYLHWYLQKPGQSPKLLIYKVSNRFSGVPDRFSGRGSGTDFTLKISRVEAEDLGIYFCSQSTHVPPTFGGGTKLEIKR
B2: binds [1]; binds [2]; binds [3]. B2: binds [4]; binds [5]; binds [6]. B2: binds [7]; binds [8]; binds [9]. B2: binds [10]; binds [11]; binds [12]. B2: no binding (tested: 10 ug/ml) [13]; binds [14]; binds [15]. B2: binds [16]; binds [17]; binds [18]. B2: binds [19]; binds [20]; binds [21].

B3: H2Mab-299 antibody (antibody, mouse IgG1, kappa, V domains shown)
VH: EVQLVESGGGLVQPGGSLKLSCAASGFTFNIYGIFWVRQTPDKRLELVATIHSNGGRIYYPDSVKGRFTISRDNAKNTLYLQMSSLKSEDTAMYYCAREGGDYWGQGTSVTVSS
VL: DIVMTQSHKVMATSVGDRVSITCKASQDVGTAVAWYQQKPGQSPKLLIYWASTRHTGVPDRFTGSGSGTDFTLTINNVLSEDLVDYFCQQYRRYPLTFGAGTKLELKR
B3: binds [22]; binds [23]; binds [24]. B3: binds [25]; binds [26]; binds [27]. B3: binds [28]; binds [29]; binds [30]. B3: binds [31]; binds [32]; binds [33]. B3: binds [34]; binds [35]; no binding (tested: 10 ug/ml) [36]. B3: binds [37]; binds [38]; binds [39]. B3: binds [40]; binds [41]; binds [42].
